PMC9943657, “Structural basis for topological regulation of Tn3 resolvase”

Experiments:
[1] = molecular target: T1, Tn3 resolvase (crystallized) (Tn3 transposon, UniProt P0ADI2 1-185); test: X-ray crystallography; Form I, ~3.4 A, one dimer-DNA complex per asymmetric unit; Crystal DNA annealed at 1 mM in TE (Tris-HCl pH 8.0, EDTA), 50 mM NaCl; footprinting: synapses crosslinked with glutaraldehyde, DNase I + 10 mM MgCl2; binding buffers and temperature not in material; settings: protein: recombinant; chain copies: 2; label: none for native; 29 bp, 1-nt 5' overhang at each end
[2] = molecular target: T1, Tn3 resolvase (crystallized); test: X-ray crystallography; Form II, ~4.0/4.5/4.0 A, two dimer-DNA complexes per asymmetric unit; Crystal DNA annealed at 1 mM in TE (Tris-HCl pH 8.0, EDTA), 50 mM NaCl; footprinting: synapses crosslinked with glutaraldehyde, DNase I + 10 mM MgCl2; binding buffers and temperature not in material; settings: protein: recombinant; chain copies: 2; label: none for native; 25 bp, 2-nt 5' overhang at each end

T1 sequence (P0ADI2 whole entry): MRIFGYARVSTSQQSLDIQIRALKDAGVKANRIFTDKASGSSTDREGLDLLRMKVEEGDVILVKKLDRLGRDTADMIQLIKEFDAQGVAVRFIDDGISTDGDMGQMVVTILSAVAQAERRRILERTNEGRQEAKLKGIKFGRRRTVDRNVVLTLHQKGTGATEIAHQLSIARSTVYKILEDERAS

Row | Binder | binding result [1] | binding result [2]
1 | Tn3 res site III, Form I duplex (dsDNA) DNA 1: TCGTGTCTGATATTCGATTTAAGGTACATT DNA 2: AAATGTACCTTAAATCGAATATCAGACACG | binds | 
2 | Tn3 res site III, Form II duplex (dsDNA) DNA 1: ATTGTCTGATATTCGATTTAAGGTACA DNA 2: ATTGTACCTTAAATCGAATATCAGACA |  | binds
